Source: patent US20040146511A1

How the values were obtained:
human Factor IX (human) = human Factor IX (human) (UniProt P00740); assay: cell-based or functional assay
[1] = target: Recombinant human Factor IX (rhFIX, Genetics Institute) (human) (UniProt P00740); assay: titration microcalorimetry; 106 uM FIX injected into 2 uM mAb
Recombinant human Factor IX (rhFIX, Genetics Institute) (human), sequence (P00740 47-461 limits assumed): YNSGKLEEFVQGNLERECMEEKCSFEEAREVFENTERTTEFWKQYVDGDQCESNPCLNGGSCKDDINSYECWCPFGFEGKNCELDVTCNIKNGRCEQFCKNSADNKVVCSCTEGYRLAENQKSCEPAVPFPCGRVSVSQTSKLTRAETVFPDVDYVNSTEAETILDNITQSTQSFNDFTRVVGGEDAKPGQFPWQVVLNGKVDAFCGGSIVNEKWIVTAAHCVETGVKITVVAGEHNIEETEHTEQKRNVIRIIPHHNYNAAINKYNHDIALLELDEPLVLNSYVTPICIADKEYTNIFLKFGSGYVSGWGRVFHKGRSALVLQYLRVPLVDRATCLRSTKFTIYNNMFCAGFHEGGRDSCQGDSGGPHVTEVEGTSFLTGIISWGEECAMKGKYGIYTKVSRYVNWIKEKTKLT

human Factor IX (human), sequence (P00740 47-461 limits assumed): as above

B1: murine anti-Factor IX monoclonal antibody BC2 (antibody, from a related filing, mouse IgG2a, V domains shown)
VH: QIQLVQSGPELKKPGETVKISCKASGYTFTNYGMNWVKQAPGKGLKWMGWINTRNGKSTYVDDFKGRFAFSLESSASTANLQIDNLKDEDTATYFCTREGNMDGYFPFTYWGQGTLVTVSA
VL: QIVLSQSPAILSASPGEKVTMTCRASSSVNYMHWYQQKPGSSPKPWIYATSNLASGVPARFSGSGSGTSYSLTISRVEAEDAATYYCQQWSINPRTFGGGTKLEIKR
What does the source list for B1?
aPTT at saturating concentrations (human Factor IX (human)): 90 s; aPTTmax/aPTTnormal x 100 % (human Factor IX (human)): 350%

B2: humanized anti-Factor IX monoclonal antibody SB 249417 (antibody, V domains shown)
VH: QVQLVQSGSELKKPGASVKVSCKASGYTFTNYGMNWVRQAPGQGLKWMGWINTRNGKSTYVDDFKGRFVFSLDSSVSTAYLQISSLKADDTAVYYCTREGNMDGYFPFTYWGQGTLVTVSS
VL: QIVLTQSPSSLSASVGDRVTITCRASSSVNYMHWYQQKPGKAPKPWIYATSNLASGVPSRFSGSGSGTDYTFTISSLQPEDIATYYCQQWSINPRTFGQGTKVEIKR
Which molar binding ratio (FIX per mAb) [1] does the source give for B2 here?
Its molar binding ratio (FIX per mAb) is 2 FIX per mAb.
